How the values were obtained:
Assay in all cases: FACS
[1] = target: miniHA cluster1 (A/Brisbane/59/2007) (influenza A virus H1N1) (UniProt A8C8J4)
[2] = target: miniHA (A/Brisbane/59/2007) (influenza A virus H1N1) (UniProt A8C8J4)
[3] = target: mini2 cluster11 + 5 (A/Brisbane/59/2007) (influenza A virus H1N1) (UniProt A8C8J4)
[4] = target: H3-mini2-cl9 + 10 + 11 + 12-GCN4 (influenza A virus H3N2) (UniProt O11283)
[5] = target: HK68 H3m2-cl9 + 10 + 11 + 12-GCN4 (influenza A virus H3N2) (UniProt Q91MA7)
[6] = target: HK68 H3m2-cl9 + 10 + 11 + 12 (influenza A virus H3N2) (UniProt Q91MA7)
[7] = target: HK68 H3m2-cl9 + 10 + 11 + 12-tri (influenza A virus H3N2) (UniProt Q91MA7)
[8] = target: HK68 H3m2-cl9 + 10 + 12 (influenza A virus H3N2) (UniProt Q91MA7)

CR6254 (antibody)
% positive cells [1]: 60%
MFI relative to full-length HA [1]: 10%
% positive cells [2]: 1 to 3%
MFI relative to full-length HA [3]: 50%

CR6328 (antibody)
% positive cells [1]: 60%
% positive cells [2]: 1 to 3%

CR8020 (antibody)
% positive cells [4]: 60%
% positive cells [5]: > 15%
% positive cells [6]: > 15%
% positive cells [7]: > 15%
% positive cells [8]: > 15%

CR8043 (antibody)
% positive cells [5]: > 15%
% positive cells [6]: > 15%
% positive cells [7]: > 15%
% positive cells [8]: > 15%

From patent US20140357845A1
